Data on two molecules can be found in patent EP1198239B1 (Cancer Research Ventures Limited, dated 2007).

Some results are limits rather than exact numbers.

Assay [1] deals with Kid (Escherichia coli plasmid R1) (UniProt P13976). As to the kind of experiment: cell-based or functional assay.
Another assay concerns the target T1, Kid (Escherichia coli plasmid R1, UniProt P13976 24-133).
T1 construct: expressed from p424Met25Kid in yeast and from pNATHA2 in HeLa cells; also called ParD kid toxin; killing determinant
T1 sequence (looked up): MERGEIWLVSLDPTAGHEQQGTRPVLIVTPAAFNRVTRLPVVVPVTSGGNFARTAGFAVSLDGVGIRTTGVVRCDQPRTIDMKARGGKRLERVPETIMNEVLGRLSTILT
As to the kind of experiment: co-retention of untagged Kid with HisKis on Ni2+-activated chelating sepharose; Kid released only by denaturation (eluted at 5.5 M guanidinium chloride).

Regarding Kis (from UniProt P13975 1-85), in assay [1], the dead cells (trypan blue), all other samples (incl. kis+/kid+ HeLa cells without Doxycyclin, Kis expressed) is less than 9%; the dead cells (trypan blue), kis+/kid+ HeLa cells in presence of Doxycyclin, day five worked out at 32%; the dead cells (trypan blue), kis+/kid+ HeLa cells in presence of Doxycyclin, day ten was 65%.

B1: HisKis (other, Escherichia coli plasmid R1, UniProt P13975 1-85, looked up)
chain: MHTTRLKRVGGSVMLTVPPALLNALSLGTDNEVGMVIDNGRLIVEPYRRPQYSLAELLAQCDPNAEISAEEREWLDAPATGQEEI
notes: Co-expressed with Kid from pRG-HisKisKid in E. coli C600 or TG1; also called His-tagged Kis; ParD kis antitoxin with N-terminal His tag; not shown: N-terminal His tag and linker from vector pET15b, subcloned into pRG-recA-NHis
For B1, in the assay with Kid, the binding result is listed as “binds”.
